Assay results reported in article PMC5803617 (Journal of Cachexia, Sarcopenia and Muscle, 2017).

B1: UBE2G1, untagged recombinant (enzyme, human, UniProt P62253 1-170, looked up)
chain: MTELQSALLLRRQLAELNKNPVEGFSAGLIDDNDLYRWEVLIIGPPDTLYEGGVFKAHLTFPKDYPLRPPKMKFITEIWHPNVDKNGDVCISILHEPGEDKYGYEKPEERWLPIHTVETIMISVISMLADPNGDSPANVDAAKEWREDRNGEFKRKVARCVRKSQETAFE

Assays:
[1] = target: GST-MuRF1/telethonin complexes, cross-linked (rat) (UniProt Q91Z63); experiment: SPR
[2] = target: MuRF1/telethonin complex co-expressed in yeast from pBridge::MuRF1/telethonin (rat) (UniProt Q91Z63); experiment: yeast three-hybrid
GST-MuRF1 = GST-MuRF1 (rat, UniProt Q91Z63 1-351); experiment: SPR
GST-MuRF1, sequence (Q91Z63 whole entry): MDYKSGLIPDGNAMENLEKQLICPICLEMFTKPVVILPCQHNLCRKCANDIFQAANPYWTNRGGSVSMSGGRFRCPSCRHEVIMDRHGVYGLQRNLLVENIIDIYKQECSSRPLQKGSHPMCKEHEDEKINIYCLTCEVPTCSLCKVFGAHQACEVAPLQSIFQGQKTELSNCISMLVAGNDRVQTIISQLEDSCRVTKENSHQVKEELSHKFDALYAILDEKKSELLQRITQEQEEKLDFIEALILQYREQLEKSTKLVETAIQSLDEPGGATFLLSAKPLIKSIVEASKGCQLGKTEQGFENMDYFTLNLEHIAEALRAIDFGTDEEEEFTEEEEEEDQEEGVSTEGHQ

MuRF1/telethonin complex co-expressed in yeast from pBridge::MuRF1/telethonin (rat), sequence (Q91Z63 whole entry, looked up, one chain of several): as the sequence (Q91Z63 whole entry) above

Molecule | Kd [1] [nM] | percent positive clones [2] [%] | ka of the E2G1 dimer (heterogeneous analyte model) (GST-MuRF1) [M⁻¹ s⁻¹] | ka of the E2G1 monomer (heterogeneous analyte model) (GST-MuRF1) [M⁻¹ s⁻¹]
UBE2E1, untagged recombinant (from UniProt P52482 1-193) (enzyme) | 5 |  |  | 
UBE2E1 fused to the activation domain of GAL4 (from UniProt P52482 1-193) (enzyme) |  | 93 |  | 
B1 |  | 58 | ~300 | ~4000
